Results on 8 molecules are retold here after patent US12662541B2, “Antibody-drug conjugates against the receptor tyrosine kinase EphA5” (Rutgers, The State University of New Jersey, priority 2021, dated 2026).

Data set [1] has as its target T1, rhEphA5 antigen (Homo sapiens, UniProt P54756).
T1 construct: purchased R and D systems 3036-A5
The data set is described as follows: ka (1/Ms). How it is done:
(§1) Table printed on a drawing sheet, FIG. 13
(§2) Head of the field: ka (1/Ms)
(§3) The patent's description of the figure: FIG. 13 is a table illustrating the single cycle kinetic parameters of chimeric (VH0/VK0) and humanized 11C12 variants (tested as cell culture supernatants) binding to rhEphA5 antigen as determined using the Biacore T200. The relative KD was calculated by dividing the KD of the humanized variant by that of the VH0/VK0 (top row) assayed in the same experiment. The variants marked with ‘*’ have KD values that are within two-fold of, or are better than, the chimeric antibody. The chimeric and selected variants marked in ‘#’ were identified as the main leads for purification. […]
(§4) Where the first naming reader finds the target: description_of_the_figure: humanized 11C12 variants (tested as cell culture supernatants) binding to rhEphA5 antigen as determined using the Biacore T200

Data set [2] addresses T1, rhEphA5 antigen. Kind of data set: kd (1/s). On the procedure: as §1
(§5) Head of the field: kd (1/s)
as §3, §4

Data set [3] addresses T1, rhEphA5 antigen. Kind of data set: KD (M). How it is done:
as §1
Head of the field: KD (M)
as §3, §4

In data set [4] the target is T2, EphA5 antigen (Homo sapiens, UniProt P54756).
T2 construct: purchased R and D systems 3036-A5
Kind of data set: ka (1/Ms). On the procedure: (§6) Table printed on a drawing sheet, FIG. 19
as §2
(§7) The patent's description of the figure: FIG. 19 is a table illustrating the Multi-cycle kinetic parameters of chimeric (VH0/VK0) and humanized variants (tested as purified proteins) binding to EphA5 antigen as determined using the Biacore T200. The relative KD was calculated by dividing the KD of the humanized variant by that of the VH0VK0 (first row) assayed in the same experiment. […]
(§8) Where the first naming reader finds the target: description_of_the_figure: humanized variants (tested as purified proteins) binding to EphA5 antigen as determined using the Biacore T200

For data set [5], the target named is T2, EphA5 antigen. Kind of data set: kd (1/s). How it is done: as §6, §5, §7, §8
Data set [6] in a line: Thermal ramp stability (UNcle biostability platform, Sypro Orange and SLS). The format is physicochemical. An excerpt:
Thermal ramp stability experiments (Tm and Tagg) are well established methods for ranking proteins and formulations for stability. A protein's denaturation profile provides information about its thermal stability and represents a structural ‘fingerprint’ for assessing structural and formulation buffer modifications. A widely used measure of the thermal structural stability of a protein is the temperature at which it unfolds from the native state to a denatured state. For many proteins, this unfolding process occurs over a narrow temperature range and the mid-point of this transition is termed ‘melting temperature’ or ‘Tm’. To determine the melting temperature of a protein, UNcle measures the fluorescence of Sypro Orange (which binds to exposed hydrophobic regions of proteins) as the protein undergoes conformational changes.
Samples for each variant were formulated in PBS and Sypro Orange at a final concentration of 1 mg/mL. […] Samples were subjected to a thermal ramp from 25-95° C., with a ramp rate of 0.3° C./minute and excitation at 473 nm. Full emission spectra were collected from 250-720 nm, and the area under the curve between 510-680 nm was used to calculate the inflection points of the transition curves (Tonset and Tm). Monitoring of static light scattering (SLS) at 473 nm allowed the detection of protein aggregation, and Tagg (onset of aggregation) was calculated from the resulting SLS profiles. Thermal stability values determined lie in a broad range from 57.9 to 69.6° C. (Tm1), 55.1 to 65.2° C. (Tonset) and 65.6 to 70.2° C. (Tagg) with the humanized leads generally showing improved profiles when compared to the chimeric antibody. […] All humanized antibodies appear to have a higher Tm1, Tonset and Tagg compared to the chimeric antibody.

B1: VH3/VK3: humanized anti-EphA5 antibody, VH SEQ ID NO:4, VL SEQ ID NO:11 (antibody, V domains shown)
VH: EVQLVESGGGLVQPGGSLKLSCAASGFTFSTFGIHWVRQAPGKGLEWVAYISGASTTIYYADTVKGRFTISRDNSKNTLYLQMNSLRSEDTAMYYCARYGTSFPYGLDYWGQGTLVTVSS
VL: DIVMTQSPDSLAVSLGERATINCKASQSVDYDGDSYMNWYQQKPGKAPKLLIYGASNLESGIPDRFSGSGSGTDFTLTISRLEPEDAAVYYCQQSNEDPFTFGQGTKLEIK
As to B1, the ka with rhEphA5 antigen [1] turned out to be 1.32e+06 M⁻¹ s⁻¹. Moreover, in the data set with rhEphA5 antigen [2], the “kd” value was determined as 0.00133 s⁻¹. Binding with rhEphA5 antigen [3] was put at a Kd of 1.01 nM.

B2: VH4/VK4: humanized anti-EphA5 antibody, VH SEQ ID NO:5, VL SEQ ID NO:12; lead variant (antibody, V domains shown)
VH: EVQLVESGGGLVQPGGSLKLSCAASGFTFSTFGIHWVRQAPGKGLEWVAYISGASTTIYYADTVKGRFTISRDNSKNTLYLQMNSLRAEDTAVYYCARYGTSFPYGLDYWGQGTLVTVSS
VL: DIVMTQSPDSLAVSLGERATINCKSSQSVDYDGDSYMNWYQQKPGKAPKLLIYGASNLESGIPDRFSGSGSGTDFTLTISRLEPEDAASYYCQQSNEDPFTFGQGTKLEIK
In the case of B2, in the data set with EphA5 antigen [4], the ka was found to be 1.27e+06 M⁻¹ s⁻¹. For the same molecule, the “kd” value with EphA5 antigen [5] worked out at 0.00132 s⁻¹; in the data set with rhEphA5 antigen [2] it was 0.0014 s⁻¹.

B3: VH1/VK1: humanized anti-EphA5 antibody, VH SEQ ID NO:2, VL SEQ ID NO:9 (antibody, V domains shown)
VH: EVTLVESGGGLVQPGGSRKLSCAASGFTFSTFGIHWVRQAPGKGLEWVAYISGASTTIYYADTVKGRFTISRDNSKNTLYLQMNSLRSEDTAMYYCARYGTSFPYGLDYWGQGTSVTVSS
VL: DIVMTQSPGSLAVSLGERATINCKASQSVDYDGDSYMNWYQQKPGKAPKLLIYGASNLESGIPDRFSGSGSGTDFTLTISRLEEEDAASYYCQQSNEDPFTFGQGTKLEIK
As to B3, the “ka” value with rhEphA5 antigen [1] is 1.25e-06 M⁻¹ s⁻¹. In addition, the “kd” value with rhEphA5 antigen [2] worked out at 0.00128 s⁻¹. Binding with rhEphA5 antigen [3] was put at a Kd of 1.02 nM.

B4: VH1/VK2: humanized anti-EphA5 antibody, VH SEQ ID NO:2, VL SEQ ID NO:10 (antibody, V domains shown)
VH: EVTLVESGGGLVQPGGSRKLSCAASGFTFSTFGIHWVRQAPGKGLEWVAYISGASTTIYYADTVKGRFTISRDNSKNTLYLQMNSLRSEDTAMYYCARYGTSFPYGLDYWGQGTSVTVSS
VL: DIVMTQSPDSLAVSLGERATINCKASQSVDYDGDSYMNWYQQKPGKAPKLLIYGASNLESGIPDRFSGSGSGTDFTLTISRLEPEDAASYYCQQSNEDPFTFGQGTKLEIK
In the case of B4, the “ka” value with rhEphA5 antigen [1] is 1.31e-06 M⁻¹ s⁻¹. The “kd” value with rhEphA5 antigen [2] was 0.00126 s⁻¹. For the same molecule, the affinity with rhEphA5 antigen [3], expressed as Kd, was 0.968 nM.

B5: VH2/VK1: humanized anti-EphA5 antibody, VH SEQ ID NO:3, VL SEQ ID NO:9 (antibody, V domains shown)
VH: EVTLVESGGGLVQPGGSLKLSCAASGFTFSTFGIHWVRQAPGKGLEWVAYISGASTTIYYADTVKGRFTISRDNSKNTLYLQMNSLRSEDTAMYYCARYGTSFPYGLDYWGQGTLVTVSS
VL: DIVMTQSPGSLAVSLGERATINCKASQSVDYDGDSYMNWYQQKPGKAPKLLIYGASNLESGIPDRFSGSGSGTDFTLTISRLEEEDAASYYCQQSNEDPFTFGQGTKLEIK
Regarding B5, the “ka” value with rhEphA5 antigen [1] came to 1.35e-06 M⁻¹ s⁻¹. Moreover, the “kd” value in the data set with rhEphA5 antigen [2] was determined as 0.0012 s⁻¹. Moreover, binding with rhEphA5 antigen [3] was put at a Kd of 0.89 nM.

B6: VH5/VK2: humanized anti-EphA5 antibody, VH SEQ ID NO:6, VL SEQ ID NO:10; lead variant (antibody, V domains shown)
VH: EVQLVESGGGLVQPGGSLKLSCAASGFTFSTFGIHWVRQAPGKGLEWVAYISGASTTIYYADSVKGRFTISRDNSKNTLYLQMNSLRAEDTAVYYCARYGTSFPYGLDYWGQGTLVTVSS
VL: DIVMTQSPDSLAVSLGERATINCKASQSVDYDGDSYMNWYQQKPGKAPKLLIYGASNLESGIPDRFSGSGSGTDFTLTISRLEPEDAASYYCQQSNEDPFTFGQGTKLEIK
With B6, the results for the ka with EphA5 antigen [4] and with rhEphA5 antigen [1] were 1.34e+06 M⁻¹ s⁻¹ and 1.38e-06 M⁻¹ s⁻¹, respectively. The figures for the “kd” value with EphA5 antigen [5] and with rhEphA5 antigen [2] were 0.00125 s⁻¹ and 0.00123 s⁻¹, respectively.

B7: VH3/VK5: humanized anti-EphA5 antibody, VH SEQ ID NO:4, VL SEQ ID NO:13 (antibody, V domains shown)
VH: EVQLVESGGGLVQPGGSLKLSCAASGFTFSTFGIHWVRQAPGKGLEWVAYISGASTTIYYADTVKGRFTISRDNSKNTLYLQMNSLRSEDTAMYYCARYGTSFPYGLDYWGQGTLVTVSS
VL: DIVMTQSPDSLAVSLGERATINCKSSQSVDYDGDSYMNWYQQKPGKAPKLLIYGASNLESGIPDRFSGSGSGTDFTLTISRLEPEDAAVYYCQQSNEDPFTFGQGTKLEIK
With B7, the ka in the data set with rhEphA5 antigen [1] was 1.29e+06 M⁻¹ s⁻¹. Besides, the “kd” value with rhEphA5 antigen [2] was found to be 0.00143 s⁻¹. Moreover, the Kd (usually a measure of binding affinity in units of concentration) with rhEphA5 antigen [3] is 1.1 nM.

B8: VH5/VK4: humanized anti-EphA5 antibody, VH SEQ ID NO:6, VL SEQ ID NO:12; lead variant (antibody, V domains shown)
VH: EVQLVESGGGLVQPGGSLKLSCAASGFTFSTFGIHWVRQAPGKGLEWVAYISGASTTIYYADSVKGRFTISRDNSKNTLYLQMNSLRAEDTAVYYCARYGTSFPYGLDYWGQGTLVTVSS
VL: DIVMTQSPDSLAVSLGERATINCKSSQSVDYDGDSYMNWYQQKPGKAPKLLIYGASNLESGIPDRFSGSGSGTDFTLTISRLEPEDAASYYCQQSNEDPFTFGQGTKLEIK
On to B8, for which the ka with EphA5 antigen [4] was 1.23e+06 M⁻¹ s⁻¹; with rhEphA5 antigen [1], 1.35e-06 M⁻¹ s⁻¹. Moreover, the entries for the “kd” value in the data set with EphA5 antigen [5] and with rhEphA5 antigen [2] were 0.00128 s⁻¹ and 0.00141 s⁻¹, respectively. Besides, the “Tagg ranking among the leads (SLS profiles)” value in data set [6] is listed as “highest Tagg values”.
